Experimental findings from the supplement of paper PMC5998384 are described below.

Series [1] deals with HeLa Kyoto. As to the kind of experiment: solubility in G1/S (NP-40 vs SDS abundance) (log2 ratio); higher = more soluble. The conditions noted are these: cell cycle stage: G1/S.
In series [2] the test system is HeLa Kyoto. As to the kind of experiment: solubility change mitosis vs G1/S (difference of NP-40 vs SDS log2 ratios) (log2 ratio difference); higher = more soluble in mitosis.
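Throughout, for solubility change mitosis vs G1/S (difference of NP-40 vs SDS log2 ratios): synchronized HeLa Kyoto cells (double thymidine block for G1/S, nocodazole release for mitosis), protein amounts in NP-40 versus SDS lysates quantified by mass spectrometry, three biological replicates.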
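Throughout, for solubility in G1/S (NP-40 vs SDS abundance): HeLa Kyoto cells arrested at G1/S by double thymidine block, proteins quantified by TMT10plex mass spectrometry in mild NP-40 versus SDS extracts, three biological replicates.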

Regarding “MNKNTSTVVSPSLLEKDPAFQMITIAKETGLGLKVLGGINRNEGPLVYIQEIIPGGDCYKDGRLKPGDQLVSVNKESMIGVSFEEAKSIITGAKLRLESAWEIAFIRQKSDNIQPENLSCTSLIEASGEYGPQASTLSLFSSPPEILIPKTSSTPKTNNDILSSCEIKTGYNKTVQIPITSENSTVGLSNTDVASAWTENYGLQEKISLNPSVRFKAEKLEMALNYLGIQPTKEQHQALRQQVQADSKGTVSFGDFVQVARNLFCLQLDEVNVGAHEISNILDSQLLPCDSSEADEMERLKCERDDALKEVNTLKEKLLESDKQRKQLTEELQNVKQEAKAVVEETRALRSRIHLAEAAQRQAHGMEMDYEEVIRLLEAKITELKAQLADYSDQNKESVQDLKKRIMVLDCQLRKSEMARKTFEASTEKLLHFVEAIQEVFSDNSTPLSNLSERRAVLASQTSLTPLGRNGRSIPATLALESKELVKSVRALLDMDCLPYGWEEAYTADGIKYFINHVTQTTSWIHPVMSVLNLSRSEENEEDCSRELPNQKS [STXBP4]”, the “solubility in G1/S (log2)” value in series [1] worked out at 0.308. Moreover, in series [2], the “solubility change mitosis (log2)” value was -0.138.

On to “MDTKHFLPLDFSTQVNSSLTSPTGRGSMAAPSLHPSLGPGIGSPGQLHSPISTLSSPINGMGPPFSVISSPMGPHSMSVPTTPTLGFSTGSPQLSSPMNPVSSSEDIKPPLGLNGVLKVPAHPSGNMASFTKHICAICGDRSSGKHYGVYSCEGCKGFFKRTVRKDLTYTCRDNKDCLIDKRQRNRCQYCRYQKCLAMGMKREAVQEERQRGKDRNENEVESTSSANEDMPVERILEAELAVEPKTETYVEANMGLNPSSPNDPVTNICQAADKQLFTLVEWAKRIPHFSELPLDDQVILLRAGWNELLIASFSHRSIAVKDGILLATGLHVHRNSAHSAGVGAIFDRVLTELVSKMRDMQMDKTELGCLRAIVLFNPDSKGLSNPAEVEALREKVYASLEAYCKHKYPEQPGRFAKLLLRLPALRSIGLKCLEHLFFFKLIGDTPIDTFLMEMLEAPHQMT [RXRA]”, for which, in series [1], the “solubility in G1/S (log2)” value was determined as 0.173. Further, the “solubility change mitosis (log2)” value in series [2] was -0.151.

Consider “MSEVLPADSGVDTLAVFMASSGTTDVTNRNSPATPPNTLNLRSSHNELLNAEIKHTETKNSTPPKCRKKYALTNIQAAMGLSDPAAQPLLGNGSANIKLVKNGENQLRKAAEQGQQDPNKNLSPTAVINITSEKLEGKEPHPQDSSSCEILPSQPRRTKSFLNYYADLETSARELEQNRGNHHGTAEEKSQPVQGQASTIIGNGDLLLQKPNRPQSSPEDGQVATVSSSPETKKDHPKTGAKTDCALHRIQNLAPSDEESSWTTLSQDSASPSSPDETDIWSDHSFQTDPDLPPGWKRVSDIAGTYYWHIPTGTTQWERPVSIPADLQGSRKGSLSSVTPSPTPENEKQPWSDFAVLNGGKINSDIWKDLHAATVNPDPSLKEFEGATLRYASLKLRNAPHPDDDDSCSINSDPEAKCFAVRSLGWVEMAEEDLAPGKSSVAVNNCIRQLSYCKNDIRDTVGIWGEGKDMYLILENDMLSLVDPMDRSVLHSQPIVSIRVWGVGRDNGRDFAYVARDKDTRILKCHVFRCDTPAKAIATSLHEICSKIMAERKNAKALACSSLQERANVNLDVPLQVDFPTPKTELVQKFHVQYLGMLPVDKPVGMDILNSAIENLMTSSNKEDWLSVNMNVADATVTVISEKNEEEVLVECRVRFLSFMGVGKDVHTFAFIMDTGNQRFECHVFWCEPNAGNVSEAVQAACMLRYQKCLVARPPSQKVRPPPPPADSVTRRVTTNVKRGVLSLIDTLKQKRPVTEMP [APBB2]”, for which, in series [1], the “solubility in G1/S (log2)” value came to 0.0839. Besides, in series [2], the “solubility change mitosis (log2)” value is -0.0698.

Consider “MAAPVLLRVSVPRWERVARYAVCAAGILLSIYAYHVEREKERDPEHRALCDLGPWVKCSAALASRWGRGFGLLGSIFGKDGVLNQPNSVFGLIFYILQLLLGMTASAVAALILMTSSIMSVVGSLYLAYILYFVLKEFCIICIVTYVLNFLLLIINYKRLVYLNEAWKRQLQPKQD [VKORC1L1]”, for which the “solubility in G1/S (log2)” value in series [1] is -0.56. The “solubility change mitosis (log2)” value in series [2] was -0.107.

Regarding “MLGTVKMEGHETSDWNSYYADTQEAYSSVPVSNMNSGLGSMNSMNTYMTMNTMTTSGNMTPASFNMSYANPGLGAGLSPGAVAGMPGGSAGAMNSMTAAGVTAMGTALSPSGMGAMGAQQAASMNGLGPYAAAMNPCMSPMAYAPSNLGRSRAGGGGDAKTFKRSYPHAKPPYSYISLITMAIQQAPSKMLTLSEIYQWIMDLFPYYRQNQQRWQNSIRHSLSFNDCFVKVARSPDKPGKGSYWTLHPDSGNMFENGCYLRRQKRFKCEKQPGAGGGGGSGSGGSGAKGGPESRKDPSGASNPSADSPLHRGVHGKTGQLEGAPAPGPAASPQTLDHSGATATGGASELKTPASSTAPPISSGPGALASVPASHPAHGLAPHESQLHLKGDPHYSFNHPFSINNLMSSSEQQHKLDFKAYEQALQYSPYGSTLPASLPLGSASVTTRSPIEPSALEPAYYQGVYSRPVLNTS [FOXA1]”, in series [1], the “solubility in G1/S (log2)” value amounted to 0.392. Moreover, the “solubility change mitosis (log2)” value in series [2] was determined as 0.0934.

As for “MDDDLMLALRLQEEWNLQEAERDHAQESLSLVDASWELVDPTPDLQALFVQFNDQFFWGQLEAVEVKWSVRMTLCAGICSYEGKGGMCSIRLSEPLLKLRPRKDLVETLLHEMIHAYLFVTNNDKDREGHGPEFCKHMHRINSLTGANITVYHTFHDEVDEYRRHWWRCNGPCQHRPPYYGYVKRATNREPSAHDYWWAEHQKTCGGTYIKIKEPENYSKKGKGKAKLGKEPVLAAENKDKPNRGEAQLVIPFSGKGYVLGETSNLPSPGKLITSHAINKTQDLLNQNHSANAVRPNSKIKVKFEQNGSSKNSHLVSPAVSNSHQNVLSNYFPRVSFANQKAFRGVNGSPRISVTVGNIPKNSVSSSSQRRVSSSKISLRNSSKVTESASVMPSQDVSGSEDTFPNKRPRLEDKTVFDNFFIKKEQIKSSGNDPKYSTTTAQNSSSSSSQSKMVNCPVCQNEVLESQINEHLDWCLEGDSIKVKSEESL [SPRTN]”, the “solubility in G1/S (log2)” value in series [1] is -0.206. The “solubility change mitosis (log2)” value in series [2] came out at 0.0242.

“MASATAPAAAVPTLASPLEQLRHLAEELRLLLPRVRVGEAQETTEEFNREMFWRRLNEAAVTVSREATTLTIVFSQLPLPSPQETQKFCEQVHAAIKAFIAVYYLLPKDQGITLRKLVRGATLDIVDGMAQLMEVLSVTPTQSPENNDLISYNSVWVACQQMPQIPRDNKAAALLMLTKNVDFVKDAHEEMEQAVEECDPYSGLLNDTEENNSDNHNHEDDVLGFPSNQDLYWSEDDQELIIPCLALVRASKACLKKIRMLVAENGKKDQVAQLDDIVDISDEISPSVDDLALSIYPPMCHLTVRINSAKLVSVLKKALEITKASHVTPQPEDSWIPLLINAIDHCMNRIKELTQSELEL [CCNDBP1]”: the “solubility in G1/S (log2)” value in series [1] worked out at 0.509. The “solubility change mitosis (log2)” value in series [2] is -0.176.

Consider “MSRRTRCEDLDELHYQDTDSDVPEQRDSKCKVKWTHEEDEQLRALVRQFGQQDWKFLASHFPNRTDQQCQYRWLRVLNPDLVKGPWTKEEDQKVIELVKKYGTKQWTLIAKHLKGRLGKQCRERWHNHLNPEVKKSCWTEEEDRIICEAHKVLGNRWAEIAKMLPGRTDNAVKNHWNSTIKRKVDTGGFLSESKDCKPPVYLLLELEDKDGLQSAQPTEGQGSLLTNWPSVPPTIKEEENSEEELAAATTSKEQEPIGTDLDAVRTPEPLEEFPKREDQEGSPPETSLPYKWVVEAANLLIPAVGSSLSEALDLIESDPDAWCDLSKFDLPEEPSAEDSINNSLVQLQASHQQQVLPPRQPSALVPSVTEYRLDGHTISDLSRSSRGELIPISPSTEVGGSGIGTPPSVLKRQRKRRVALSPVTENSTSLSFLDSCNSLTPKSTPVKTLPFSPSQFLNFWNKQDTLELESPSLTSTPVCSQKVVVTTPLHRDKTPLHQKHAAFVTPDQKYSMDNTPHTPTPFKNALEKYGPLKPLPQTPHLEEDLKEVLRSEAGIELIIEDDIRPEKQKRKPGLRRSPIKKVRKSLALDIVDEDVKLMMSTLPKSLSLPTTAPSNSSSLTLSGIKEDNSLLNQGFLQAKPEKAAVAQKPRSHFTTPAPMSSAWKTVACGGTRDQLFMQEKARQLLGRLKPSHTSRTLILS [MYBL2]”, for which, in series [1], the “solubility in G1/S (log2)” value is 0.219. The “solubility change mitosis (log2)” value in series [2] is -0.187.

As for “MSAAGAGAGVEAGFSSEELLSLRFPLHRACRDGDLATLCSLLQQTPHAHLASEDSFYGWTPVHWAAHFGKLECLVQLVRAGATLNVSTTRYAQTPAHIAAFGGHPQCLVWLIQAGANINKPDCEGETPIHKAARSGSLECISALVANGAHVDLRNASGLTAADIAQTQGFQECAQFLLNLQNCHLNHFYNNGILNGGHQNVFPNHISVGTNRKRCLEDSEDFGVKKARTEAQSLDSAVPLTNGDTEDDADKMHVDREFAVVTDMKNSSSVSNTLTNGCVINGHLDFPSTTPLSGMESRNGQCLTGTNGISSGLAPGQPFPSSQGSLCISGTEEPEKTLRANPELCGSLHLNGSPSSCIASRPSWVEDIGDNLYYGHYHGFGDTAESIPELNSVVEHSKSVKVQERYDSAVLGTMHLHHGS [ANKRD10]”, in series [1], the “solubility in G1/S (log2)” value was 0.0215. Moreover, in series [2], the “solubility change mitosis (log2)” value came to 0.112.

Consider “MAAWSPAAAAPLLRGIRGLPLHHRMFATQTEGELRVTQILKEKFPRATAIKVTDISGGCGAMYEIKIESEEFKEKRTVQQHQMVNQALKEEIKEMHGLRIFTSVPKR [BOLA3]”, for which, in series [1], the “solubility in G1/S (log2)” value stood at 0.378. Moreover, the “solubility change mitosis (log2)” value in series [2] was 0.234.

Turning to “MASPSKAVIVPGNGGGDVTTHGWYGWVKKELEKIPGFQCLAKNMPDPITARESIWLPFMETELHCDEKTIIIGHSSGAIAAMRYAETHRVYAIVLVSAYTSDLGDENERASGYFTRPWQWEKIKANCPYIVQFGSTDDPFLPWKEQQEVADRLETKLHKFTDCGHFQNTEFHELITVVKSLLKVPA [RBBP9]”, the “solubility in G1/S (log2)” value in series [1] is 0.42. Further, the “solubility change mitosis (log2)” value in series [2] is 0.00166.

In the case of “MTPLVSRLSRLWAIMRKPRAAVGSGHRKQAASQEGRQKHAKNNSQAKPSACDGMIAECPGAPAGLARQPEEVVLQASVSSYHLFRDVAEVTAFRGSLLSWYDQEKRDLPWRRRAEDEMDLDRRAYAVWVSEVMLQQTQVATVINYYTGWMQKWPTLQDLASASLEEVNQLWAGLGYYSRGRRLQEGARKVVEELGGHMPRTAETLQQLLPGVGRYTAGAIASIAFGQATGVVDGNVARVLCRVRAIGADPSSTLVSQQLWGLAQQLVDPARPGDFNQAAMELGATVCTPQRPLCSQCPVESLCRARQRVEQEQLLASGSLSGSPDVEECAPNTGQCHLCLPPSEPWDQTLGVVNFPRKASRKPPREESSATCVLEQPGALGAQILLVQRPNSGLLAGLWEFPSVTWEPSEQLQRKALLQELQRWAGPLPATHLRHLGEVVHTFSHIKLTYQVYGLALEGQTPVTTVPPGARWLTQEEFHTAAVSTAMKKVFRVYQGQQPGTCMGSKRSQVSSPCSRKKPRMGQQVLDNFFRSHISTDAHSLNSAAQ [MUTYH]”, in series [1], the “solubility in G1/S (log2)” value worked out at 0.104. In addition, the “solubility change mitosis (log2)” value in series [2] is -0.0934.

Consider “MAVTKELLQMDLYALLGIEEKAADKEVKKAYRQKALSCHPDKNPDNPRAAELFHQLSQALEVLTDAAARAAYDKVRKAKKQAAERTQKLDEKRKKVKLDLEARERQAQAQESEEEEESRSTRTLEQEIERLREEGSRQLEEQQRLIREQIRQERDQRLRGKAENTEGQGTPKLKLKWKCKKEDESKGGYSKDVLLRLLQKYGEVLNLVLSSKKPGTAVVEFATVKAAELAVQNEVGLVDNPLKISWLEGQPQDAVGRSHSGLSKGSVLSERDYESLVMMRMRQAAERQQLIARMQQEDQEGPPT [DNAJC17]”, for which, in series [1], the “solubility in G1/S (log2)” value came out at 0.702. For the same sequence, in series [2], the “solubility change mitosis (log2)” value is 0.205.
